One block for each binder: values may come before it.
B3: Spn1(148–293) (domain or fragment, S. cerevisiae, UniProt Q06505 148-293, looked up)
chain: DDLEQYLDEKILRLKDEMNIAAQLDIDTLNKRIETGDTSLIAMQKVKLLPKVVSVLSKANLADTILDNNLLQSVRIWLEPLPDGSLPSFEIQKSLFAALNDLPVKTEHLKESGLGRVVIFYTKSKRVEAQLARLAEKLIAEWTRPI

Assays:
Assay in all cases: ITC
[1] = target: B3
[2] = target: T1, Spn1(148–293)-R263D (S. cerevisiae, UniProt Q06505 148-293, R263D)
T1 sequence (looked up): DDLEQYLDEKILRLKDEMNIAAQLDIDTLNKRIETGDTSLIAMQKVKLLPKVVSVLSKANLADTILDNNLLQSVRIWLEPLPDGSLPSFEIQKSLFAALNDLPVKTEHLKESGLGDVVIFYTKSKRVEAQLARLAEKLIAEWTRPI

[3] = target: T2, Spt6(239–1117) (S. cerevisiae, UniProt P23615 239-1117)
T2 sequence (looked up): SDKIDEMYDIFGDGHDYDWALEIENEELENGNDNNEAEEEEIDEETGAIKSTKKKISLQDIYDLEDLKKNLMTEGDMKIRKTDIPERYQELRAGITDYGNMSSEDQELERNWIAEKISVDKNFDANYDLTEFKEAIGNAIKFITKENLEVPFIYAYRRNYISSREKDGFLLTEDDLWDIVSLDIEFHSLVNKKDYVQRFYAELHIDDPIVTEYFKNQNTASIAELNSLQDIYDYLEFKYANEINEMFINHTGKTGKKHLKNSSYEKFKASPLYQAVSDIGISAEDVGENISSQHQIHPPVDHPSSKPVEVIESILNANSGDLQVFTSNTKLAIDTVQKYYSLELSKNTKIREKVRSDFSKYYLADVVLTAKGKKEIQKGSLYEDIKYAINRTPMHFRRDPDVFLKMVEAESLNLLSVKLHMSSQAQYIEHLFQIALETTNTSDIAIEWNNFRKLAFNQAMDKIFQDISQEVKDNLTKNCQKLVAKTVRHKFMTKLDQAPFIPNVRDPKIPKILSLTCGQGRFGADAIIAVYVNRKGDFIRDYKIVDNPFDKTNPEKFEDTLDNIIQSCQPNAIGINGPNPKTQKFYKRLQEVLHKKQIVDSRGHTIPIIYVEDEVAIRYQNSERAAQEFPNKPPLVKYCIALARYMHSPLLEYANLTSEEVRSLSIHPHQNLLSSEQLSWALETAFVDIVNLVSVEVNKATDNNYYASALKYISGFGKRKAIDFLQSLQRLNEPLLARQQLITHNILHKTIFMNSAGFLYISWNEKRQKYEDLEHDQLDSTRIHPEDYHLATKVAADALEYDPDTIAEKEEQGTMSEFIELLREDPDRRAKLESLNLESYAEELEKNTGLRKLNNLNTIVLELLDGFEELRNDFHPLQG

stoichiometry N [1]: 1 | Kd [2]: 30 µM
B1: Spt6(239–268) (domain or fragment, S. cerevisiae, UniProt P23615 239-268, looked up)
chain: SDKIDEMYDIFGDGHDYDWALEIENEELEN

Kd [1]: 11 µM
B2: Spt6(239–268)-F249K (domain or fragment, S. cerevisiae, UniProt P23615 239-268, looked up)
chain: SDKIDEMYDIKGDGHDYDWALEIENEELEN

Binder: B3
stoichiometry N [3]: 1
